One block for each binder: values may come before it.
Tests used:
[1] = target: T1, B7-H3 on B7H3-expressing A375 and A375.S2 cells (UniProt Q5ZPR3 29-534, limits assumed); experiment: cell-based binding on A375 and A375.S2 cells (FIG. 13)
T1 construct: whole, on cells
T1 sequence (looked up): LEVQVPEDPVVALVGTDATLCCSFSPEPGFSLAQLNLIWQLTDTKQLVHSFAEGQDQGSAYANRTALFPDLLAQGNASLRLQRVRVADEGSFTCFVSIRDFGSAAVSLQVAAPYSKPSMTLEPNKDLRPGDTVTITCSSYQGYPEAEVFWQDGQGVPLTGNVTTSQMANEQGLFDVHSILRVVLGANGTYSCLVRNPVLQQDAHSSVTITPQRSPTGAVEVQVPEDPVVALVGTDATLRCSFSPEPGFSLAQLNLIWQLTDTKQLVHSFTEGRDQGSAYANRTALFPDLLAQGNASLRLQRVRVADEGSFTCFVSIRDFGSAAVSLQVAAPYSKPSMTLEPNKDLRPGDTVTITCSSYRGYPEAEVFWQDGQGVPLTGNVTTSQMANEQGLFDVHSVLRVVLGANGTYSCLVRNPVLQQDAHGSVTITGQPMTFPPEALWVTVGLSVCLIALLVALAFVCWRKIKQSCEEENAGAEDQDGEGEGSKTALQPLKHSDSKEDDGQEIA

[2] = target: T1, B7-H3 on B7H3-expressing A375 and …; experiment: binding to B7H3-expressing A375 cell line (FIG. 18)
Method: The binding of these prodrugs against B7H3-expressing A375 cell line were tested.

[3] = target: T1, B7-H3 on B7H3-expressing A375 and …; experiment: cell-based binding assay (FIG. 15A)
[4] = target: T1, B7-H3 on B7H3-expressing A375 and …; experiment: FACS on B7H3-expressing A375 and A375.S2 cells

binding result [1]: binds
B1: Format 29 (KIH CH3Δ6 mask + cleavable linker PLGLAG on MGA017 variable regions, mIgG1) (antibody)
heavy: GQPREPQVCTLPPSRDELTKNQVSLSCAVKGFYPSDIAVEWESNGQPENNYKTTPPVLDSDGSFFLVSKLTVDKSRWQQGNVFSCSVMHEALHNHYTQKSLPLGLAGEVQLVESGGGLVKPGGSLRLSCAASGFTFSSYGMSWVRQAPGKGLEWVATINSGGSNTYYPDSLKGRFTISRDNAKNSLYLQMNSLRAEDTAVYYCARHDGGAMDYWGQGTTVTVSSAKTTPPSVYPLAPGSAAQTNSMVTLGCLVKGYFPEPVTVTWNSGSLSSGVHTFPAVLQSDLYTLSSSVTVPSSTWPSETVTCNVAHPASSTKVDKKIVPRDCGCKPCICTVPEVSSVFIFPPKPKDVLTITLTPKVTCVVVDISKDDPEVQFSWFVDDVEVHTAQTQPREEQFNSTFRSVSELPIMHQDWLNGKEFKCRVNSAAFPAPIEKTISKTKGRPKAPQVYTIPPPKEQMAKDKVSLTCMITDFFPEDITVEWQWNGQPAENYKNTQPIMDTDGSYFVYSKLNVQKSNWEAGNTFTCSVLHEGLHNHHTEKSLSHSPGK
light: GQPREPQVYTLPPCRDELTKNQVSLWCLVKGFYPSDIAVEWESNGQPENNYKTTPPVLDSDGSFFLYSKLTVDKSRWQQGNVFSCSVMHEALHNHYTQKSLPLGLAGDIQMTQSPSSLSASVGDRVTITCRASESIYSYLAWYQQKPGKAPKLLVYNTKTLPEGVPSRFSGSGSGTDFTLTISSLQPEDFATYYCQHHYGTPPWTFGQGTRLEIKRADAAPTVSIFPPSSEQLTSGGASVVCFLNNFYPKDINVKWKIDGSERQNGVLNSWTDQDSKDSTYSMSSTLTLTKDEYERHNSYTCEATHKTSTSPIVKSFNRNEC
notes: Antibody prodrug against B7-H3, uncleaved

binding result [1]: binds
B2: Format 28 (KIH CH3Δ6 mask + cleavable linker IPVSLRSG on MGA017 variable regions, mIgG1) (antibody)
heavy: GQPREPQVCTLPPSRDELTKNQVSLSCAVKGFYPSDIAVEWESNGQPENNYKTTPPVLDSDGSFFLVSKLTVDKSRWQQGNVFSCSVMHEALHNHYTQKSLIPVSLRSGEVQLVESGGGLVKPGGSLRLSCAASGFTFSSYGMSWVRQAPGKGLEWVATINSGGSNTYYPDSLKGRFTISRDNAKNSLYLQMNSLRAEDTAVYYCARHDGGAMDYWGQGTTVTVSSAKTTPPSVYPLAPGSAAQTNSMVTLGCLVKGYFPEPVTVTWNSGSLSSGVHTFPAVLQSDLYTLSSSVTVPSSTWPSETVTCNVAHPASSTKVDKKIVPRDCGCKPCICTVPEVSSVFIFPPKPKDVLTITLTPKVTCVVVDISKDDPEVQFSWFVDDVEVHTAQTQPREEQFNSTFRSVSELPIMHQDWLNGKEFKCRVNSAAFPAPIEKTISKTKGRPKAPQVYTIPPPKEQMAKDKVSLTCMITDFFPEDITVEWQWNGQPAENYKNTQPIMDTDGSYFVYSKLNVQKSNWEAGNTFTCSVLHEGLHNHHTEKSLSHSPGK
light: GQPREPQVYTLPPCRDELTKNQVSLWCLVKGFYPSDIAVEWESNGQPENNYKTTPPVLDSDGSFFLYSKLTVDKSRWQQGNVFSCSVMHEALHNHYTQKSLIPVSLRSGDIQMTQSPSSLSASVGDRVTITCRASESIYSYLAWYQQKPGKAPKLLVYNTKTLPEGVPSRFSGSGSGTDFTLTISSLQPEDFATYYCQHHYGTPPWTFGQGTRLEIKRADAAPTVSIFPPSSEQLTSGGASVVCFLNNFYPKDINVKWKIDGSERQNGVLNSWTDQDSKDSTYSMSSTLTLTKDEYERHNSYTCEATHKTSTSPIVKSFNRNEC
notes: as for B1

binding result [2]: binds
B3: Format 34 (CLκ on VH / CH1 plus EPKSC on VL as mask + GGGS on MGA017 variable regions, hIgG1) (antibody)
heavy: not shown
light: ASTKGPSVFPLAPSSKSTSGGTAALGCLVKDYFPEPVTVSWNSGALTSGVHTFPAVLQSSGLYSLSSVVTVPSSSLGTQTYICNVNHKPSNTKVDKKVEPKSCGGGSDIQMTQSPSSLSASVGDRVTITCRASESIYSYLAWYQQKPGKAPKLLVYNTKTLPEGVPSRFSGSGSGTDFTLTISSLQPEDFATYYCQHHYGTPPWTFGQGTRLEIKRTVAAPSVFIFPPSDEQLKSGTASVVCLLNNFYPREAKVQWKVDNALQSGNSQESVTEQDSKDSTYSLSSTLTLSKADYEKHKVYACEVTHQGLSSPVTKSFNRGEC
notes: Antibody prodrug against B7-H3

binding result [3]: binds
B4: Format 31 (KIH CH3Δ6 mask + cleavable linker IPVSLRSGPLGLAG on MGA017 variable regions, mIgG1) (antibody)
heavy: GQPREPQVCTLPPSRDELTKNQVSLSCAVKGFYPSDIAVEWESNGQPENNYKTTPPVLDSDGSFFLVSKLTVDKSRWQQGNVFSCSVMHEALHNHYTQKSLIPVSLRSGPLGLAGEVQLVESGGGLVKPGGSLRLSCAASGFTFSSYGMSWVRQAPGKGLEWVATINSGGSNTYYPDSLKGRFTISRDNAKNSLYLQMNSLRAEDTAVYYCARHDGGAMDYWGQGTTVTVSSAKTTPPSVYPLAPGSAAQTNSMVTLGCLVKGYFPEPVTVTWNSGSLSSGVHTFPAVLQSDLYTLSSSVTVPSSTWPSETVTCNVAHPASSTKVDKKIVPRDCGCKPCICTVPEVSSVFIFPPKPKDVLTITLTPKVTCVVVDISKDDPEVQFSWFVDDVEVHTAQTQPREEQFNSTFRSVSELPIMHQDWLNGKEFKCRVNSAAFPAPIEKTISKTKGRPKAPQVYTIPPPKEQMAKDKVSLTCMITDFFPEDITVEWQWNGQPAENYKNTQPIMDTDGSYFVYSKLNVQKSNWEAGNTFTCSVLHEGLHNHHTEKSLSHSPGK
light: GQPREPQVYTLPPCRDELTKNQVSLWCLVKGFYPSDIAVEWESNGQPENNYKTTPPVLDSDGSFFLYSKLTVDKSRWQQGNVFSCSVMHEALHNHYTQKSLIPVSLRSGPLGLAGDIQMTQSPSSLSASVGDRVTITCRASESIYSYLAWYQQKPGKAPKLLVYNTKTLPEGVPSRFSGSGSGTDFTLTISSLQPEDFATYYCQHHYGTPPWTFGQGTRLEIKRADAAPTVSIFPPSSEQLTSGGASVVCFLNNFYPKDINVKWKIDGSERQNGVLNSWTDQDSKDSTYSMSSTLTLTKDEYERHNSYTCEATHKTSTSPIVKSFNRNEC
notes: as for B1

binding result [2]: binds
B5: Format 33 (IgG1 CH3Δ6 hole / IgG4 CH3Δ6 knob mask + GGGS on MGA017 variable regions, hIgG1) (antibody)
heavy: not shown
light: GQPREPQVYTLPPCQEEMTKNQVSLWCLVKGFYPSDIAVEWESNGQPENNYKTTPPVLDSDGSFFLYSRLTVDKSRWQEGNVFSCSVMHEALHNHYTQKSLGGGSDIQMTQSPSSLSASVGDRVTITCRASESIYSYLAWYQQKPGKAPKLLVYNTKTLPEGVPSRFSGSGSGTDFTLTISSLQPEDFATYYCQHHYGTPPWTFGQGTRLEIKRTVAAPSVFIFPPSDEQLKSGTASVVCLLNNFYPREAKVQWKVDNALQSGNSQESVTEQDSKDSTYSLSSTLTLSKADYEKHKVYACEVTHQGLSSPVTKSFNRGEC
notes: as for B3

binding result [4]: binds
B6: MGA017 (parental naked anti-B7-H3 antibody) (antibody, V domains shown)
VH: EVQLVESGGGLVKPGGSLRLSCAASGFTFSSYGMSWVRQAPGKGLEWVATINSGGSNTYYPDSLKGRFTISRDNAKNSLYLQMNSLRAEDTAVYYCARHDGGAMDYWGQGTTVTVSS
VL: DIQMTQSPSSLSASVGDRVTITCRASESIYSYLAWYQQKPGKAPKLLVYNTKTLPEGVPSRFSGSGSGTDFTLTISSLQPEDFATYYCQHHYGTPPWTFGQGTRLEIK
notes: Anti-B7-H3 antibody from MacroGenics; also called un-masked MGA017; parental naked antibody of Format 12

binding result [1]: binds
B7: MGA017-mIgG1 (parental antibody of Formats 28-31) (antibody, V domains shown)
VH: B6 VH
VL: B6 VL
notes: mIgG1; also called parental antibody MGA017; naked antibody MGA017

binding result [1]: binds
B8: Format 30 (KIH CH3Δ6 mask + cleavable linker PLGLAGGGGS on MGA017 variable regions, mIgG1) (antibody)
heavy: GQPREPQVCTLPPSRDELTKNQVSLSCAVKGFYPSDIAVEWESNGQPENNYKTTPPVLDSDGSFFLVSKLTVDKSRWQQGNVFSCSVMHEALHNHYTQKSLPLGLAGGGGSEVQLVESGGGLVKPGGSLRLSCAASGFTFSSYGMSWVRQAPGKGLEWVATINSGGSNTYYPDSLKGRFTISRDNAKNSLYLQMNSLRAEDTAVYYCARHDGGAMDYWGQGTTVTVSSAKTTPPSVYPLAPGSAAQTNSMVTLGCLVKGYFPEPVTVTWNSGSLSSGVHTFPAVLQSDLYTLSSSVTVPSSTWPSETVTCNVAHPASSTKVDKKIVPRDCGCKPCICTVPEVSSVFIFPPKPKDVLTITLTPKVTCVVVDISKDDPEVQFSWFVDDVEVHTAQTQPREEQFNSTFRSVSELPIMHQDWLNGKEFKCRVNSAAFPAPIEKTISKTKGRPKAPQVYTIPPPKEQMAKDKVSLTCMITDFFPEDITVEWQWNGQPAENYKNTQPIMDTDGSYFVYSKLNVQKSNWEAGNTFTCSVLHEGLHNHHTEKSLSHSPGK
light: GQPREPQVYTLPPCRDELTKNQVSLWCLVKGFYPSDIAVEWESNGQPENNYKTTPPVLDSDGSFFLYSKLTVDKSRWQQGNVFSCSVMHEALHNHYTQKSLPLGLAGGGGSDIQMTQSPSSLSASVGDRVTITCRASESIYSYLAWYQQKPGKAPKLLVYNTKTLPEGVPSRFSGSGSGTDFTLTISSLQPEDFATYYCQHHYGTPPWTFGQGTRLEIKRADAAPTVSIFPPSSEQLTSGGASVVCFLNNFYPKDINVKWKIDGSERQNGVLNSWTDQDSKDSTYSMSSTLTLTKDEYERHNSYTCEATHKTSTSPIVKSFNRNEC
notes: as for B1

Reference: patent US20240182541A1 (CONCEPT TO MEDICINE BIOTECH, published 2024)
